Laboratory results published in article PMC6093232, “PROMIS, global analysis of PROtein–metabolite interactions using size separation in Arabidopsis thaliana” (The Journal of Biological Chemistry, 2018).

Experiments:
[1] = target: human recombinant GAPDH protein (human) (UniProt P04406); experiment: nano-DSF (thermal shift, Prometheus NT.48); human GAPDH 1 μM with 500 μM dipeptide in 10 mM Tris-HCl pH 7.5, 0.5 M NaCl; thermal ramp 2 °C/min, 20–90 °C; Tm from F350/F330
[2] = target: His6-GAPCP1 (A. thaliana) (UniProt Q9SAJ6); experiment: nano-DSF (thermal shift, Prometheus NT.48); plant GAPCs 0.2–0.25 mg/ml with 25 μM (GAPC1/2, GAPCP1) or 50 μM (GAPCP2) dipeptide in 1× PBS; thermal ramp 2 °C/min, 20–90 °C; Tm from F350/F330
Sequence of His6-GAPCP1 (A. thaliana) (Q9SAJ6 70-422): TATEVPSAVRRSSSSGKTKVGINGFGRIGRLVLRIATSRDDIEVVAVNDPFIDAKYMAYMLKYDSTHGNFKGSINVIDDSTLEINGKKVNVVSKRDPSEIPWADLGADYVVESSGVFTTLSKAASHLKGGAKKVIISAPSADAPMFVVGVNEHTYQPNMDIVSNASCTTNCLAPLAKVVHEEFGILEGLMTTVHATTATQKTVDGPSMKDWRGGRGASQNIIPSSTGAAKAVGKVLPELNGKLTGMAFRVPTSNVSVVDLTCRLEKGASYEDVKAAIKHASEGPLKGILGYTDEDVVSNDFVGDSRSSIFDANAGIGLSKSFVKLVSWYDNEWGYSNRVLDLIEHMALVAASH

[3] = target: His6-GAPCP2 (A. thaliana) (UniProt Q5E924); experiment: as above
Sequence of His6-GAPCP2 (A. thaliana) (Q5E924 67-420): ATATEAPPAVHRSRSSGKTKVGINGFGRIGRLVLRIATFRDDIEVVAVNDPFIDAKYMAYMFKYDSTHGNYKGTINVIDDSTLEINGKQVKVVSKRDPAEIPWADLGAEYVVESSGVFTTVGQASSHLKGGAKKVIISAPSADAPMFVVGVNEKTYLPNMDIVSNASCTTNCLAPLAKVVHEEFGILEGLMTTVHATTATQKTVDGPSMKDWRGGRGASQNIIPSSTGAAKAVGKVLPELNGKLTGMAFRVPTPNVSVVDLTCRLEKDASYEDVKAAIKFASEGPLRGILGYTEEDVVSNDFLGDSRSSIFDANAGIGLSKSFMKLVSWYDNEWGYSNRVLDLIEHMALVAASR

Sequence of human recombinant GAPDH protein (human) (P04406 whole entry): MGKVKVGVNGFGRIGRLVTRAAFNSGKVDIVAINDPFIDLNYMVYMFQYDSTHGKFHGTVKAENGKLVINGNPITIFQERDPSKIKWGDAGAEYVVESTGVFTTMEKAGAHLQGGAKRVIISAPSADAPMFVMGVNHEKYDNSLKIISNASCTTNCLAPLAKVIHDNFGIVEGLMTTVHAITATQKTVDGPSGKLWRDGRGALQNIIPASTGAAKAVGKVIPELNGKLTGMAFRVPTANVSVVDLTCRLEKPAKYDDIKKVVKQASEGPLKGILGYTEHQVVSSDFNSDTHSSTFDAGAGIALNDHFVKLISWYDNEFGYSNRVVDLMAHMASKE

increase of Tm with 500 μM Tyr–Asp [1]: 1.1 °C | decrease of Tm with 25 μM Tyr–Asp [2]: 2 °C | decrease of Tm with 50 μM Tyr–Asp [3]: 1.5 °C
Substance: dipeptide Tyr–Asp
